Test results: PMC5074518

Tests used:
[1] = target: purine nucleoside phosphorylase from Kluyveromyces lactis, C-terminal 6xHis-tag variant (Kluyveromyces lactis); experiment: crystal structure; C-terminal 6xHis-tag variant, 8 mg/mL in 25 mM Tris-HCl, 100 mM NaCl, pH 8.0, mixed with 0.1 M sodium acetate trihydrate pH 4.6, 8% PEG4000; space group P6(1), 1.97 Å, three molecules in the asymmetric unit
[2] = target: purine nucleoside phosphorylase from Kluyveromyces lactis, 6xHis-tagged, as used in analytical gel filtration (Kluyveromyces lactis); experiment: SEC; analytical size exclusion chromatography on a Superdex 200 Increase 10/300 GL column, calibrated with molecular weight marker proteins; single predominant peak at 12.5 mL

stoichiometry N [1] | stoichiometry N [2] | Substance
3 |  | purine nucleoside phosphorylase from Kluyveromyces lactis, C-terminal 6xHis-tag variant (enzyme)
 | 3 | purine nucleoside phosphorylase from Kluyveromyces lactis, 6xHis-tagged, as used in analytical gel filtration (enzyme)
